Measured values as given in PMC3320765 (Biochemistry, 2012).

B1: 6His-UBN1(41–119) (domain or fragment, human, UniProt Q9NPG3 41-119, looked up)
chain: AAAAVRITLTLFEPDHKRCPEFFYPELVKNIRGKVKGLQPGDKKKDLSDPFNDEEKERHKVEALARKFEEKYGGKKRRK
B2: 6His-UBN1(41–175) (domain or fragment, human, UniProt Q9NPG3 41-175, looked up)
chain: AAAAVRITLTLFEPDHKRCPEFFYPELVKNIRGKVKGLQPGDKKKDLSDPFNDEEKERHKVEALARKFEEKYGGKKRRKDRIQDLIDMGYGYDESDSFIDNSEAYDELVPASLTTKYGGFYINSGTLQFRQASES

Target: HIRA(1–405), untagged (HIRA WD repeats) (human, UniProt P54198 1-405)
Assay: AUC

Sequence of HIRA(1–405), untagged (HIRA WD repeats) (P54198 1-405): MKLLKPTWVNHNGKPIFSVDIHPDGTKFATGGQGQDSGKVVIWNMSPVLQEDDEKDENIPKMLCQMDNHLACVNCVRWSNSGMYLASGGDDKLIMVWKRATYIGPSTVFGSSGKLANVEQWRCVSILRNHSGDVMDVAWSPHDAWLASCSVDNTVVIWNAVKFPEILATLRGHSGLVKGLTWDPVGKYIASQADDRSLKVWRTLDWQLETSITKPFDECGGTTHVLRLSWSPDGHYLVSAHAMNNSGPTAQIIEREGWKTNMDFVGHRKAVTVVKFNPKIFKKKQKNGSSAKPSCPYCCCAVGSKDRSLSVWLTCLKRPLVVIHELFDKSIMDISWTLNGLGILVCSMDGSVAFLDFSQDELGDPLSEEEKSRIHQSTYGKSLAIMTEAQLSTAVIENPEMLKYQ

Binder | Kd
B1 | 6.5 nM
B2 | 13.3 nM
